Paper PMC2572727, “The GET Complex Mediates Insertion of Tail-Anchored Proteins into the ER Membrane” (Cell, 2008)

Target: T1, purified Get1-PC and Get2-HA reconstituted in proteoliposomes (yeast, UniProt P53192 1-235; P40056 1-285)
T1 construct: Get1 (Mdm39), yeast; construct details in the Supplemental Data; Get2 (Rmd7, Hur2), yeast; also called +Get1/+Get2; Get1/Get2 complex; source: copurified from yeast, reconstituted into proteoliposomes
T1 sequence (looked up) 1: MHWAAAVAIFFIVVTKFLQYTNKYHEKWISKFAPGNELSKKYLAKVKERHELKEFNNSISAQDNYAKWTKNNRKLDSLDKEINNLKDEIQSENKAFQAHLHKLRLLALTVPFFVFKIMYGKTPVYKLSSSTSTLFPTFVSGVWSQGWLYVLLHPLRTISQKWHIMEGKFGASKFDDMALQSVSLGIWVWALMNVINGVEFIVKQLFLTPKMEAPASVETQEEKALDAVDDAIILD
T1 sequence (looked up) 2: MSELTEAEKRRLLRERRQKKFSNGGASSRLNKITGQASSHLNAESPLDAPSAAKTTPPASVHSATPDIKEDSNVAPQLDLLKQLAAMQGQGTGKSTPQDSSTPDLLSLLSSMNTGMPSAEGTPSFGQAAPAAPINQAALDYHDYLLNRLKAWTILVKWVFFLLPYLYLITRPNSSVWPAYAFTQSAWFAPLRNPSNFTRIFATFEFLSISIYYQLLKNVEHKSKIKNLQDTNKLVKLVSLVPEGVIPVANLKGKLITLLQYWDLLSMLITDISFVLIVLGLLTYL
Assay: co-sedimentation; recombinant Get3 incubated with proteoliposomes reconstituted with purified Get1-PC and Get2-HA or with Phs1 as control; Optiprep gradient fractions blotted with αGet3 or αPhs1
Conditions: both partners purified

B1: recombinant Get3 ATPase (enzyme, yeast, UniProt Q12154 1-354, looked up)
chain: MDLTVEPNLHSLITSTTHKWIFVGGKGGVGKTTSSCSIAIQMALSQPNKQFLLISTDPAHNLSDAFGEKFGKDARKVTGMNNLSCMEIDPSAALKDMNDMAVSRANNNGSDGQGDDLGSLLQGGALADLTGSIPGIDEALSFMEVMKHIKRQEQGEGETFDTVIFDTAPTGHTLRFLQLPNTLSKLLEKFGEITNKLGPMLNSFMGAGNVDISGKLNELKANVETIRQQFTDPDLTTFVCVCISEFLSLYETERLIQELISYDMDVNSIIVNQLLFAENDQEHNCKRCQARWKMQKKYLDQIDELYEDFHVVKMPLCAGEIRGLNNLTKFSQFLNKEYNPITDGKVIYELEDKE
notes: Get3 (Arr4), yeast homolog of Asna1/TRC40, soluble cytosolic ATPase; also called Arr4; source: purified from Escherichia coli (Metz et al., 2006)
- binding result: binds
